Results as given in US20160058880.

T1: PhAc-ALGP-doxorubicin
T1 chain: ALGP

T2: Succinyl-βALPF-doxorubicin
T2 chain: ALPF

T3: PhAc-AIGP-doxorubicin
T3 chain: AIGP

T4: N-succinyl-beta-alanyl-L-leucyl-L-alanyl-L-leucyl-doxorubicin
T4 chain: ALAL

T5: PhAc-ALAF-doxorubicin
T5 chain: ALAF

T6: PhAc-ALAL-doxorubicin
T6 chain: ALAL

T7: PhAc-TSGP-doxorubicin
T7 chain: TSGP

T8: PhAc-KLGP-doxorubicin
T8 chain: KLGP

T9: LGP-Dox
T9 chain: LGP

T10: PhAc-DLGP-doxorubicin
T10 chain: DLGP

T11: PhAc-ALPF-doxorubicin
T11 chain: ALPF

T12: PhAc-GPGP-doxorubicin
T12 chain: GPGP

T13: NH2-Gly-Pro-Doxorubicin
T13 chain: GP


Assays:
PhAc-ALGP-doxorubicin = molecular target: T1, PhAc-ALGP-doxorubicin
[1] = molecular target: T2, Succinyl-βALPF-doxorubicin
PhAc-AIGP-doxorubicin = molecular target: T3, PhAc-AIGP-doxorubicin
[2] = molecular target: T4, N-succinyl-beta-alanyl-L-leucyl-L-alanyl …
PhAc-ALAF-doxorubicin = molecular target: T5, PhAc-ALAF-doxorubicin
PhAc-ALAL-doxorubicin = molecular target: T6, PhAc-ALAL-doxorubicin
PhAc-TSGP-doxorubicin = molecular target: T7, PhAc-TSGP-doxorubicin
PhAc-KLGP-doxorubicin = molecular target: T8, PhAc-KLGP-doxorubicin
LGP-Dox = molecular target: T9, LGP-Dox
PhAc-DLGP-doxorubicin = molecular target: T10, PhAc-DLGP-doxorubicin
PhAc-ALPF-doxorubicin = molecular target: T11, PhAc-ALPF-doxorubicin
PhAc-GPGP-doxorubicin = molecular target: T12, PhAc-GPGP-doxorubicin
NH2-Gly-Pro-Doxorubicin = molecular target: T13, NH2-Gly-Pro-Doxorubicin

Protein | cleavage by purified CD10 10 nM (grade) (PhAc-ALGP-doxorubicin) | cleavage by purified CD10 10 nM (grade; * = less than 5% of metabolites detected) [1] | cleavage by purified CD10 10 nM (grade) (PhAc-AIGP-doxorubicin) | cleavage by purified CD10 10 nM (grade) [2] | cleavage by purified CD10 10 nM (grade) (PhAc-ALAF-doxorubicin) | cleavage by purified CD10 10 nM (grade; * = less than 5% of metabolites detected) (PhAc-ALAL-doxorubicin) | cleavage by purified CD10 10 nM (grade) (PhAc-TSGP-doxorubicin) | cleavage by purified CD10 10 nM (grade; * = less than 5% of metabolites detected) (PhAc-KLGP-doxorubicin) | cleavage by purified CD10 10 nM (grade) (LGP-Dox) | cleavage by purified CD10 10 nM (grade) (PhAc-DLGP-doxorubicin) | cleavage by purified CD10 10 nM (grade) (PhAc-ALPF-doxorubicin) | cleavage by purified CD10 10 nM (grade) (PhAc-GPGP-doxorubicin) | hydrolysis by purified CD26 (PhAc-ALGP-doxorubicin) | conversion to Dox after 3 h incubation at 37° C. with purified CD26 (NH2-Gly-Pro-Doxorubicin) | hydrolysis by purified CD26 [2] | hydrolysis by purified CD26 (LGP-Dox)
CD10 (recombinant human neprilysin, R&D systems, Ref 1182-ZN) (protein) DDGICKSSDCIKSAARLIQNMDATTEPCTDFFKYACGGWLKRNVIPETSSRYGNFDILRDELEVVLKDVLQEPKTEDIVAVQKAKALYRSCINESAIDSRGGEPLLKLLPDIYGWPVATENWEQKYGASWTAEKAIAQLNSKYGKKVLINLFVGTDDKNSVNHVIHIDQPRLGLPSRDYYECTGIYKEACTAYVDFMISVARLIRQEERLPIDENQLALEMNKVMELEKEIANATAKPEDRNDPMLLYNKMTLAQIQNNFSLEINGKPFSWLNFTNEIMSTVNISITNEEDVVVYAPEYLTKLKPILTKYSARDLQNLMSWRFIMDLVSSLSRTYKESRNAFRKALYGTTSETATWRRCANYVNGNMENAVGRLYVEAAFAGESKHVVEDLIAQIREVFIQTLDDLTWMDAETKKRAEEKALAIKERIGYPDDIVSNDNKLNNEYLELNYKEDEYFENIIQNLKFSQSKQLKKLREKVDKDEWISGAAVVNAFYSSGRNQIVFPAGILQPPFFSAQQSNSLNYGGIGMVIGHEITHGFDDNGRNFNKDGDLVDWWTQQSASNFKEQSQCMVYQYGNFSWDLAGGQHLNGINTLGENIADNGGLGQAYRAYQNYIKKNGEEKLLPGLDLNHKQLFFLNFAQVWCGTYRPEYAVNSIKTDVHSPGNFRIIGTLQNSAEFSEAFHCRKNSYMNPEKKCRVW | + | -* | + | + | + | -* | - | -* | - | - | - | - |  |  |  | 
CD26 (protein) SRKTYTLTDYLKNTYRLKLYSLRWISDHEYLYKQENNILVFNAEYGNSSVFLENSTFDEFGHSINDYSISPDGQFILLEYNYVKQWRHSYTASYDIYDLNKRQLITEERIPNNTQWVTWSPVGHKLAYVWNNDIYVKIEPNLPSYRITWTGKEDIIYNGITDWVYEEEVFSAYSALWWSPNGTFLAYAQFNDTEVPLIEYSFYSDESLQYPKTVRVPYPKAGAVNPTVKFFVVNTDSLSSVTNATSIQITAPASMLIGDHYLCDVTWATQERISLQWLRRIQNYSVMDICDYDESSGRWNCLVARQHIEMSTTGWVGRFRPSEPHFTLDGNSFYKIISNEEGYRHICYFQIDKKDCTFITKGTWEVIGIEALTSDYLYYISNEYKGMPGGRNLYKIQLSDYTKVTCLSCELNPERCQYYSVSFSKEAKYYQLRCSGPGLPLYTLHSSVNDKGLRVLEDNSALDKMLQNVQMPSKKLDFIILNETKFWYQMILPPHFDKSKKYPLLLDVYAGPCSQKADTVFRLNWATYLASTENIIVASFDGRGSGYQGDKIMHAINRRLGTFEVEDQIEAARQFSKMGFVDNKRIAIWGWSYGGYVTSMVLGSGSGVFKCGIAVAPVSRWEYYDSVYTERYMGLPTPEDNLDHYRNSTVMSRAENFKQVEYLLIHGTADDNVHFQQSAQISKALVDVGVDFQAMWYTDEDHGIASSTAHQHIYTHMSHFIKQCFSLP |  |  |  |  |  |  |  |  |  |  |  |  | Neither CD26 nor FAP hydrolized either PhAc-ALGP-Dox, Suc-βALAL-Dox or LGP-Dox | 97% conversion to Dox after 3 h incubation at 37 °C | Neither CD26 nor FAP hydrolized either PhAc-ALGP-Dox, Suc-βALAL-Dox or LGP-Dox | Neither CD26 nor FAP hydrolized either PhAc-ALGP-Dox, Suc-βALAL-Dox or LGP-Dox
